The values that follow come from patent US20180280504A1, “GLYCAN-INTERACTING COMPOUNDS AND METHODS OF USE” (SIAMAB THERAPEUTICS, INC., priority 2014, published 2018).

The nature of test [1]: Glycan array, AcSTn. It is filed as binding. The settings on record: for Glycan Array AcSTn: summary table. How it is done:
(§1) Optimized glycan arrays comprise 71 chemically synthesized and well-defined glycans, most of which comprise Neu5Ac and Neu5Gc glycan pairs.
(§2) 300 ml of epoxy blocking buffer is prepared by combining 15 ml of 2 M Tris buffer (pH 8) with 0.9 ml of 16.6 M ethanolamine and 284.1 ml of distilled water. The solution was brought to a final pH of 9.0 with HCl. The solution is filtered using a […] nitrocellulose membrane. The epoxy buffer solution as well as 1 L of distilled water are pre-warmed to 50° C. Glass slides are arranged in a slide holder and quickly submerged in a staining tub with the warmed epoxy blocking buffer. Slides are incubated in the epoxy blocking buffer for 1 hour at 50° C. with periodic shaking to deactivate epoxy binding sites. Next, slides are rinsed and blocked with PBS with 1% OVA at 25° C. for one hour. Serum samples with polyclonal antibodies (1:1000) or purified monoclonal antibodies (1 ug/mL), are diluted in PBS with 1% OVA and added to the glycan array for one hour at 25° C. After extensive washing, binding of antibodies are detected by incubating glycan microarray slides with Cy3-conjugated anti-mouse IgG (Jackson Immunoresearch, West Grove, Pa.) for one hour. Slides are then washed extensively, dried and scanned with a Genepix 4000B scanner (Laser at 100%; gain at 350; 10 μm pixels). Raw data from scanned images are extracted using the Genepix software and analysis of raw data is carried out.

The nature of test [2]: Glycan array STn specificity and anti-STn antibody group assignment. It is filed as binding. Further details: key to Group (anti-STn antibody group): Group 1: antibodies capable of binding AcSTn and GcSTn; Group 2: ability to bind STn as well as some related structures that include an O-linkage to serine or threonine; Group 3: antibodies capable of binding STn, but may also bind a broader set of related structures; Group 4: capable of binding to both AcSTn and GcSTn as well as the un-sialylated Tn antigen. Conditions: for Group (anti-STn antibody group): assigned from flow cytometry and glycan array analysis; for Glycan Array STn Specificity: summary table. How it is done: as §2
Based on characterization data, anti-STn antibodies developed from Group 6 and Group 8 mice were categorized by anti-STn group number. In some cases, antibodies were assigned to Group 1. Group 1 antibodies according to the invention are antibodies capable of binding AcSTn and GcSTn. Such antibodies may have the ability to associate with a wider range of STn structures. The large oval in FIG. 1A indicates the portion of STn recognized by Group 1 antibodies. Antibodies were assigned to Group 2 based on their ability to bind STn as well as some related structures that include an O-linkage to serine or threonine. The large oval in FIG. 1B indicates the portion of STn recognized by Group 2 antibodies. In some cases, Group 2 antibodies may bind to glycans comprising a sialylated galactose residue. Some Group 2 antibodies preferably bind to structures with AcSTn over structures with GcSTn. Further anti-STn antibodies were assigned to Group 3. Group 3 antibodies are antibodies capable of binding STn, but may also bind a broader set of related structures. […] The large oval in FIG. 1C indicates the portion of STn recognized by Group 3 antibodies. Finally, some anti-STn antibodies were assigned to Group 4. Group 4 antibodies are capable of binding to both AcSTn and GcSTn as well as the un-sialylated Tn antigen, and therefore have broader specificity. The large oval in FIG. 1D indicates the portion of STn recognized by Group 4 antibodies. […] Also listed in the Table is the antibody Isotype for each antibody as determined by the IsoStrip mouse monoclonal antibody isotyping kit (Roche Diagnostics GmbH, Manheim, Germany).

In test [3] the test system is ST6GalNAc 1 transfected MDA-MB-231 cells (MDA-STn+). The experiment in a line: Flow cytometry-based analysis of antibody binding, STn+ cells. Conditions: for EC50, flow cytometry binding to cell-associated STn: ST6GalNAc 1 transfected MDA-MB-231 cells, APC anti-mouse IgG. Further details: species or system human. How it is done:
Flow cytometry-based analysis is carried out to elucidate the curve-dose response for binding of antibodies to cell surface antigens. For these analyses, three cell lines are employed.
MDA-MB-231 cells are human breast cancer cells. They are grown in Earle's Minimum Essential Medium supplemented with 10% fetal calf serum (FCS), 100 μg/ml penicillin, 100 UI/ml streptomycin and 45 μg/ml gentamycin. MCF-7 cells are also human breast cancer cells and are grown under the same conditions as MDA-MB-231 cells. Stably transfected versions of MDA-MB-231 and MCF-7 cells (clone TAH3.P10 for MDA-MB-231 cells and clone A12.1 for MCF-7 cells) that over express GalNAc α2,6-sialyltransferase (ST6GalNAc 1,) are also cultured under the same conditions with the exception of an added 1 mg/ml of G418 to support cells expressing the transgene. ST6GalNAc 1 is an enzme capable of sialylating GalNAc. As a result of over expression, transfected cells express high levels of Neu5Ac-STn (see Julien, S. et al., Glycoconjugate journal. 2001. 18, 883-93; the contents of which are herein incorporated by reference in their entirety). E3 cells are murine breast cancer cells. They are cultured in Dulbecco's E4 medium with 10% FCS. Stably transfected versions of E3 cells expressing high levels of Neu5Gc-STn (E3-STn) are cultured with 600 μg/ml of G418 and 200 μg/ml hygromycin. During growth and maintenance of experimental cells, trypsin is not used for cell passaging.
For analysis, cells are harvested using StemPro Accutase (Life Technologies, Carlsbad, Calif.) and washed with PBS comprising 5% FBS before pelleting by light centrifugation. Cell numbers and viability are determined by trypan blue dye exclusion analysis and cell concentrations are adjusted to 5×10^6 cells/ml in PBS with 5% FBS. 50 μl of cells are added to each well of an assay plate. Cells are combined with 50 μl solutions of antibody being analyzed or control antibodies and incubated for 1 hour at 4° C. Cells are washed and pelleted twice with PBS with 5% FBS before being treated with 100 μl of PBS with 5% FBS comprising a 1:1,500 dilution of anti-mouse IgG (Southern Biotech, Birmingham, Ala.,) conjugated to allophycocyanin (APC). Cells are incubated for 30 min at 4° C. before washing and resuspending in 200 μl of propidium iodide (PI) diluted 1:1000 in PBS with 5% FBS. Treated cells are then subjects to flow cytometry analysis and 10,000 events are acquired for each sample.
(In general: A flow cytometer gives signals particle by particle.)

A short description of test [4]: Glycan array, GcSTn. The settings on record: for Glycan Array GcSTn: summary table. It is filed as binding. How it is done:
as §1, §2

The mark [5] stands for this setting: glycan microarray, Cy3 anti-mouse IgG.
The mark [6] stands for this setting: summary table, unit not printed (same values in nM), read-out: Flow cytometry (EC50) MDA-STn+.
Setting [7] is: STn expressed on MDA cells, based on mean fluorescence intensity of APC, #1, #2, #3 = lots, nM, read-out: EC50 value.

Substitutions are numbered along the chain they refer to. Several values for one entry are separate records, joined by “and”; a condition that tells them apart may be missing. Identical values can stand only once. Like-named read-outs stand apart in the source and are kept apart here.

As usually defined, the EC50 is the concentration needed to bring the measured effect to its halfway point.

B1: 18C7: anti-STn mouse monoclonal, IgG2c κ, from mouse #4436; VH SEQ ID NO: 4, VL SEQ ID NO: 5 (antibody, V domains shown)
VH: QVTLKESGPGILQPSQTLSLTCSFSGFSLSTFGMGVGWIRQPSGKGLEWLAHIWWDDDKYYNPALKSRLTISKDTSKNQVFLKIANVDTADTATYYCARIAYYYGSERDYWGQGTTLTVSS
VL: QIVLTQSPAIMSASPGEKVTMTCSASSSISYMHWYHQKPGTSPKRWIYDTSKLASGVPARFSGSGSGTSYSLTISSMEAEDAATYYCHQRSSYTFGGGTKLEIKR
For the molecule B1, the “mean fluorescence intensity, AcSTn” value in test [1] (setting [5]) was “about 9,000”. Further, in test [1], the “Glycan Array AcSTn” value was found to be 60%. Also, in test [2], the “Group (anti-STn antibody group)” value is on record as “Group 1” and the “Glycan Array STn Specificity” value was determined as 100%. Also, the “EC50, flow cytometry binding to cell-associated STn” value (“EC50, flow cytometry binding” for short) in test [3] turned out to be 60.35 nM. Further, in test [3] (setting [6]), the EC50 was determined as 354 nM. Moreover, the “mean fluorescence intensity, GcSTn” value in test [4] (setting [5]) is “about 3,500”. Further, the “Glycan Array GcSTn” value in test [4] is given as 40%.

B2: 10A5: anti-STn mouse monoclonal, IgG2c κ, from mouse #4406; VH SEQ ID NO: 6, VL SEQ ID NO: 7 (antibody, V domains shown)
VH: QVQLKESGPGLVAPSQSLSITCTVSGFSLTSYGVSWVRQPPGKGLEWLGVIWGDGSTNYHSSLISRLSISKDNSKSQVFLKLNSLQTDDTATYYCARAFVYWGQGTLVTVSA
VL: QIVLTQSPAIMSASPGEKVTMTCSASSSVSYIHWYQQKSGTSPKRWIYDTSKLASGVPARFSGSGSGTSYSLTISSMEAEDAATYYCQQWSSNPPMLTFGAGTKLELK
As for B2, in test [1], the “Glycan Array AcSTn” value is reported as 96%. The “Group (anti-STn antibody group)” value in test [2] was “Group 2”. In addition, in test [2], the “Glycan Array STn Specificity” value amounted to 97%. For the same molecule, the “EC50, flow cytometry binding” value in test [3] was 3.62 nM and 5.57 nM. Further, the EC50 in test [3] (setting [7]) and in test [3] (setting [6]) was 5.57 nM in each case. For the same molecule, in test [4], the “Glycan Array GcSTn” value came out at 1%.

B3: 8C11: anti-STn mouse monoclonal, IgG2b κ, from mouse #4407; VH SEQ ID NO: 8, VL SEQ ID NO: 9 (antibody, V domains shown)
VH: B2 VH with S62A, S68I, A96T, R97K, A98G, V100T
VL: QIVLTQSPAIMSASPGEKVTMTCSASSSVSYMHWYQQKSGTSPKRWIFDTSKLASGVPARFSGSGSGTSYSLTISSMEAEDAATYYCQQWSSNLLTFGAGTKLELK
Regarding B3, the “Glycan Array AcSTn” value in test [1] was found to be 75%. For the same molecule, in test [2], the “Group (anti-STn antibody group)” value is “Group 2” and the “Glycan Array STn Specificity” value is 84%. Moreover, the “EC50, flow cytometry binding” value in test [3] is 7.52 nM. In test [3] (listed as 8C11 Lot 111113), the “EC50, flow cytometry binding” value worked out at 7.28 nM. Moreover, the “Glycan Array GcSTn” value in test [4] is reported as 9%.

B4: 2D4: anti-STn mouse monoclonal, IgG2b κ, from mouse #4407; VH SEQ ID NO: 10, VL SEQ ID NO: 11 (antibody, V domains shown)
VH: B2 VH with K5Q, T30I, S35N, H60Q, S62A, S68I, A96T, R97K, A98G, V100A
VL: B3 VL with Y35F, F48Y
Take B4: the “Glycan Array AcSTn” value in test [1] was determined as 88%. Besides, in test [2], the “Group (anti-STn antibody group)” value was “Group 2”. Moreover, the “Glycan Array STn Specificity” value in test [2] turned out to be 89%. Moreover, the “EC50, flow cytometry binding” value in test [3] came to 1.41 nM; in test [3] (listed as 2D4-1B4) it was 1.19 nM. Further, the EC50 was found to be 2.23 nM in test [3] (STn expressed on MDA cells, based on mean fluorescence intensity of APC, #1, #2, #3 = lots, nM, listed as 2D4#1, read-out: EC50 value); 1.41 nM in test [3] (STn expressed on MDA cells, based on mean fluorescence intensity of APC, #1, #2, #3 = lots, nM, listed as 2D4#2, read-out: EC50 value); 1.41 nM in test [3] (setting [6]). Besides, the “Glycan Array GcSTn” value in test [4] is listed as 1%.

B5: 7G9: anti-STn mouse monoclonal, IgG2b κ, from mouse #4407; VH SEQ ID NO: 12, VL SEQ ID NO: 9 (antibody, V domains shown)
VH: B2 VH with S17N, S35N, S62A, S68I, D72E, D88N, A96T, R97K, A98G
VL: B3 VL
For the molecule B5, in test [1], the “Glycan Array AcSTn” value came to 72%. For the same molecule, in test [2], the “Group (anti-STn antibody group)” value is “Group 2”. The “Glycan Array STn Specificity” value in test [2] was determined as 79%. Also, the “EC50, flow cytometry binding” value is on record as 6.91 nM in test [3], 7.33 nM in test [3] (listed as 7G9#2) and 5.15 nM in test [3] (listed as 7G9#3). Also, the EC50 in test [3] (setting [7]) and in test [3] (setting [6]) was 5.15 nM each time. Further, in test [4], the “Glycan Array GcSTn” value was 7%.
